Results taken from PMC11642901 (bioRxiv, 2024).

Target: hMOG isoform 1 on live GL261 cells (human, UniProt Q16653)
Test: flow cytometry on cells

Chain of hMOG isoform 1 on live GL261 cells (Q16653 30-247): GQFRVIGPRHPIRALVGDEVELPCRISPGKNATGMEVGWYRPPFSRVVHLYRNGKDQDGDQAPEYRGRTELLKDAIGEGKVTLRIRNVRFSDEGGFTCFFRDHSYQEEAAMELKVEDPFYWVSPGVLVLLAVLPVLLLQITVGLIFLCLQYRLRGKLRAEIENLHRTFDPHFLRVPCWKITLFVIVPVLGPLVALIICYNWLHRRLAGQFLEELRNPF

B1: anti-MOG IgG1 clone 8–18C5 (antibody, V domains shown)
VH: EVKLHESGAGLVKPGASVEISCKATGYTFSSFWIEWVKQRPGHGLEWIGEILPGRGRTNYNEKFKGKATFTAETSSNTAYMQLSSLTSEDSAVYYCATGNTMVNMPYWGQGTTVTVSS
VL: DIELTQSPSSLAVSAGEKVTMSCKSSQSLLNSGNQKNYLAWYQQKPGLPPKLLIYGASTRESGVPDRFTGSGSGTDFTLTISSVQAEDLAVYYCQNDHSYPLTFGAGTKLEIK
binding result: binds
